According to PMC9496920, “Anti-PTK7 Monoclonal Antibodies Inhibit Angiogenesis by Suppressing PTK7 Function” (Cancers, 2022):

Molecular target: KDR-HA (human KDR with a C-terminal HA tag) (human, UniProt P35968 20-1356)
Experiment: cell-based or functional assay

Sequence of KDR-HA (human KDR with a C-terminal HA tag) (P35968 20-1356): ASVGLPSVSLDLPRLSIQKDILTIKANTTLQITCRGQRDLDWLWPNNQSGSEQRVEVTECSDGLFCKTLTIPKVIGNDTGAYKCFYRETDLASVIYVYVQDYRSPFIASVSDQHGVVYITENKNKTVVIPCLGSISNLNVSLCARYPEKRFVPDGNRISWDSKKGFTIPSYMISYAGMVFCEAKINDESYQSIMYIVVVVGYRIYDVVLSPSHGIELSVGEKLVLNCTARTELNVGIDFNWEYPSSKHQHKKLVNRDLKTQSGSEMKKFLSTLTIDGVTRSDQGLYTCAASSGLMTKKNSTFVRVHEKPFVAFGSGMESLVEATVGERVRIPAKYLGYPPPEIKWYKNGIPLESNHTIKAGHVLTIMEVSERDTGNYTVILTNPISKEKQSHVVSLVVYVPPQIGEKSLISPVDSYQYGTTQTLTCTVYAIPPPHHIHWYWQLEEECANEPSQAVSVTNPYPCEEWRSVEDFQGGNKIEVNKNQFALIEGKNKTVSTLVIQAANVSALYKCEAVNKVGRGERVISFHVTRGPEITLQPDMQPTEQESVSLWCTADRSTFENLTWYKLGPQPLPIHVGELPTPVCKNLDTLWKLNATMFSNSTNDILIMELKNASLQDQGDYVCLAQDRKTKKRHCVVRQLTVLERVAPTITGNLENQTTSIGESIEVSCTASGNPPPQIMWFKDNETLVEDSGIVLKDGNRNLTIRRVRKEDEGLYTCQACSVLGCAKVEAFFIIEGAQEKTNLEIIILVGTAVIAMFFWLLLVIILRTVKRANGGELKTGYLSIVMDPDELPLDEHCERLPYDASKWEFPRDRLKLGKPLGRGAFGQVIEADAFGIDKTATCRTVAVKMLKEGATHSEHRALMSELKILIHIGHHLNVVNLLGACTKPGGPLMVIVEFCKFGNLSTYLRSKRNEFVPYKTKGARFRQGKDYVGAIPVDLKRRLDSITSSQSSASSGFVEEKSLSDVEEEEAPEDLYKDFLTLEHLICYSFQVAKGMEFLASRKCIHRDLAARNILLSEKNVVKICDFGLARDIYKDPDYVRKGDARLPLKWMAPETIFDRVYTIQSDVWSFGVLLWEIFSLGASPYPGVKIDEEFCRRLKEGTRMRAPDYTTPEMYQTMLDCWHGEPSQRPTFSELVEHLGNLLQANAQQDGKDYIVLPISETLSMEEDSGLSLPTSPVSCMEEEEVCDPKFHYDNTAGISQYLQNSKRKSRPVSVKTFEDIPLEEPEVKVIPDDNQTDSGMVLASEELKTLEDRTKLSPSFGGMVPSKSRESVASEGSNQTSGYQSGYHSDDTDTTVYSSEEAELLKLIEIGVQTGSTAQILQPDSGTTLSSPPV

VEGF-induced phosphorylation of KDR (Tyr1175) in HUVECs pre-treated with mAb-32 (10 ug/mL), Western blot, relative to VEGF alone: 53.2 % of VEGF-alone control
VEGF-induced phosphorylation of KDR (Tyr1175) in HUVECs pre-treated with mAb-43 (10 ug/mL), Western blot, relative to VEGF alone: 56.9 % of VEGF-alone control
B1: PTK7-FLAG (human PTK7 with a C-terminal FLAG tag) (receptor, UniProt Q13308 31-1070, looked up)
chain: AIVFIKQPSSQDALQGRRALLRCEVEAPGPVHVYWLLDGAPVQDTERRFAQGSSLSFAAVDRLQDSGTFQCVARDDVTGEEARSANASFNIKWIEAGPVVLKHPASEAEIQPQTQVTLRCHIDGHPRPTYQWFRDGTPLSDGQSNHTVSSKERNLTLRPAGPEHSGLYSCCAHSAFGQACSSQNFTLSIADESFARVVLAPQDVVVARYEEAMFHCQFSAQPPPSLQWLFEDETPITNRSRPPHLRRATVFANGSLLLTQVRPRNAGIYRCIGQGQRGPPIILEATLHLAEIEDMPLFEPRVFTAGSEERVTCLPPKGLPEPSVWWEHAGVRLPTHGRVYQKGHELVLANIAESDAGVYTCHAANLAGQRRQDVNITVATVPSWLKKPQDSQLEEGKPGYLDCLTQATPKPTVVWYRNQMLISEDSRFEVFKNGTLRINSVEVYDGTWYRCMSSTPAGSIEAQARVQVLEKLKFTPPPQPQQCMEFDKEATVPCSATGREKPTIKWERADGSSLPEWVTDNAGTLHFARVTRDDAGNYTCIASNGPQGQIRAHVQLTVAVFITFKVEPERTTVYQGHTALLQCEAQGDPKPLIQWKGKDRILDPTKLGPRMHIFQNGSLVIHDVAPEDSGRYTCIAGNSCNIKHTEAPLYVVDKPVPEESEGPGSPPPYKMIQTIGLSVGAAVAYIIAVLGLMFYCKKRCKAKRLQKQPEGEEPEMECLNGGPLQNGQPSAEIQEEVALTSLGSGPAATNKRHSTSDKMHFPRSSLQPITTLGKSEFGEVFLAKAQGLEEGVAETLVLVKSLQSKDEQQQLDFRRELEMFGKLNHANVVRLLGLCREAEPHYMVLEYVDLGDLKQFLRISKSKDEKLKSQPLSTKQKVALCTQVALGMEHLSNNRFVHKDLAARNCLVSAQRQVKVSALGLSKDVYNSEYYHFRQAWVPLRWMSPEAILEGDFSTKSDVWAFGVLMWEVFTHGEMPHGGQADDEVLADLQAGKARLPQPEGCPSKLYRLMQRCWALSPKDRPSFSEIASALGDSTVDSKP
